Test results published in patent US20170029530A1 (AbbVie / Abbott, published 2017).
Where “and” joins values, the source holds several entries; their conditions need not be identical. Equal values may be shown once.

T1: hDPEP3-ECD-His (human, UniProt Q9H4B8 36-463)
T1 construct: also called hDPEP3-His; monomeric hDPEP3-His antigen; not shown: histidine tag
T1 sequence: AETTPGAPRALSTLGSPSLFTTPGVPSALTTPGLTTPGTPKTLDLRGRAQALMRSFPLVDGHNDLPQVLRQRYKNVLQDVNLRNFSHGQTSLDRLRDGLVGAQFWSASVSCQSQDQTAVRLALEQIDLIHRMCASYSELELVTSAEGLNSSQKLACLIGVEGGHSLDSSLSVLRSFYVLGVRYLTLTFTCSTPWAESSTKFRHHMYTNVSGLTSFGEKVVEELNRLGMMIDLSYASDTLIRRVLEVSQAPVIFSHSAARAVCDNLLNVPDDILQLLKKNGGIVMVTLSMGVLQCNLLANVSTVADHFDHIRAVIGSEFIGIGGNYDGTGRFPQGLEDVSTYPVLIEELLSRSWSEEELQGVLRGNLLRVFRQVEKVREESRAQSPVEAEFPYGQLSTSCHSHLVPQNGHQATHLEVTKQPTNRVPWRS

T2: mDPEP3 (limits assumed)
T2 construct: also called mouse DPEP3-His; mouse DPEP3 ECD with histidine tag
T2 single chain: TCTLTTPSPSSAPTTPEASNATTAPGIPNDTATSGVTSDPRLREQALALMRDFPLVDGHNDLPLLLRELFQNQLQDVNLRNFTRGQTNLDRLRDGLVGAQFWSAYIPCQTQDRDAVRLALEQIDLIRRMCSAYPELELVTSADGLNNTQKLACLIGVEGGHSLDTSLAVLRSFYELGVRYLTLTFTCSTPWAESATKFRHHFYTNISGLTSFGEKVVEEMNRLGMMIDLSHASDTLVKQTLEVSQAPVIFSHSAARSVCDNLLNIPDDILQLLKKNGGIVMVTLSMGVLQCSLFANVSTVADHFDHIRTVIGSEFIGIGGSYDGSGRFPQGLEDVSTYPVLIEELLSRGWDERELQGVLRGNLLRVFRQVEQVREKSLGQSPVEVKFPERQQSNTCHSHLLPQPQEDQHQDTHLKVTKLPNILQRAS

T3: cDPEP3 (Macaca fascicularis, UniProt Q4R7M2)
T3 construct: extracellular domain; also called cynomolgus DPEP3-His; cynomolgus DPEP3 ECD with histidine tag
T3 sequence (single chain, looked up): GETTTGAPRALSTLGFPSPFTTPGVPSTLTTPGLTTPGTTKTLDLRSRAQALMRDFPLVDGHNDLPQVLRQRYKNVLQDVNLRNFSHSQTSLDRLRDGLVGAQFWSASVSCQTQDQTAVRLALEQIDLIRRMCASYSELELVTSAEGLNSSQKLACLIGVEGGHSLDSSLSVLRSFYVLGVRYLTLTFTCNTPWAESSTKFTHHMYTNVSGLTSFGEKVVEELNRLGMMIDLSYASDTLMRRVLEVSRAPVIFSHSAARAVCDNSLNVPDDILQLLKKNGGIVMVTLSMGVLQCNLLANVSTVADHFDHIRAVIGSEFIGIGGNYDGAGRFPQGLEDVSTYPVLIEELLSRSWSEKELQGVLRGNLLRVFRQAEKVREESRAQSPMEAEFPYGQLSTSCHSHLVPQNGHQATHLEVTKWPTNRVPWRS

T4: rat DPEP3 ECD with histidine tag (rat, UniProt Q5U2X4 36-459, limits assumed)
T4 construct: also called rDPEP3-His; ratDPEP3-His; not shown: histidine tag
T4 sequence: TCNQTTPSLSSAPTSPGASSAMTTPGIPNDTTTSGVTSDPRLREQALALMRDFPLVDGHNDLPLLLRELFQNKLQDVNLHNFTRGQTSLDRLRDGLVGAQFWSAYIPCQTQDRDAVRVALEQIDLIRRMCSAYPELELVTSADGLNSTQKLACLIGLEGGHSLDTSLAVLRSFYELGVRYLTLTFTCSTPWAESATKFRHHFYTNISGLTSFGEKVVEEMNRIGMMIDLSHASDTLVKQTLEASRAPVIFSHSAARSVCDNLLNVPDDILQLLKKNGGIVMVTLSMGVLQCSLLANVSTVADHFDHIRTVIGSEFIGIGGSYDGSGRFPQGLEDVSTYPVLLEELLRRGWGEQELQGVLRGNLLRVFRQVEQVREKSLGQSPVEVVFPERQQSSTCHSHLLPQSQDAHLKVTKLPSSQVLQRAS


How the values were obtained:
hDPEP3-ECD-His = molecular target: T1, hDPEP3-ECD-His; assay: BLI ForteBio RED, 200 nM hDPEP3-His, estimated grade
Method: The affinity of the antibodies for hDPEP3-His was qualitatively determined from kinetics curves generated with a ForteBio RED as follows. Anti-DPEP3 antibodies were immobilized onto anti-mouse Fc capture biosensors with a contact time of 3 mins. and a flow rate of 1000 rpm. The captured antibody loading from baseline was constant at 0.3-1 units. Following antibody capture and 30 second baseline, the biosensors were dipped into a 200 nM solution of hDPEP3-His for a 4 min. association phase followed by a 3 min. dissociation phase at a shaking rate of 1000 rpm. The biosensors were regenerated by dipping into 10 mM glycine, pH 1.7 following each cycle. The data was processed by subtracting a control mouse IgG surface response from the specific antibody response and data was truncated to the association and dissociation phase. The association and dissociation curves were used to qualitatively estimate the affinities of selected antibodies. […] A designation of “ND” means that the estimated KD was not determined.

mDPEP3 = molecular target: T2, mDPEP3; assay: ELISA, coated antigen
Method: (§1) The anti-DPEP3 antibodies were screened by ELISA for cross-reactivity with mouse, rat and cynomolgus DPEP3 and for cross reactivity to hDPEP2, the closest DPEP3 family member. ELISA was conducted as follows. Plates were coated with purified mouse, rat or cynomolgus DPEP3-His or hDPEP2-His at 0.3 μg/mL in 0.2 M carbonate-bicarbonate buffer, pH 9.4 overnight at 4° C. The protein solution was removed and the wells were blocked with 1% (w/v) BSA in PBS (PBSA), 100 μL/well for 1 hour at 37° C. Anti-DPEP3 antibody or a mouse isotype control antibody was then added at 1 μg/mL in 50 μL PBSA for 1 hour at room temperature. After washing with water, 50 μL/well HRP-labeled goat anti-mouse IgG antibody diluted 1:10,000 in PBSA was added for 30 min at room temperature. The plates were washed and developed by the addition of 40 μL/well of the TMB substrate solution (Thermo Scientific) at room temperature. An equal volume of 0.2 M H₂SO₄ was added to stop substrate development. The samples were then analyzed by spectrophotometer at OD 450. […] The cross reactivity results for exemplary DPEP3-specific antibodies can be seen in FIG. 4.

cDPEP3 = molecular target: T3, cDPEP3; assay: ELISA, coated antigen
Method: as §1

[1] = molecular target: T5, hDPEP2 ECD with histidine tag (human, UniProt Q9H4A9 33-463); assay: ELISA, coated antigen
T5 construct: also called hDPEP2-His; not shown: histidine tag
Method: as §1

[2] = molecular target: T4, rat DPEP3 ECD with histidine tag; assay: ELISA, coated antigen
Method: as §1

T5 sequence (Q9H4A9 33-463): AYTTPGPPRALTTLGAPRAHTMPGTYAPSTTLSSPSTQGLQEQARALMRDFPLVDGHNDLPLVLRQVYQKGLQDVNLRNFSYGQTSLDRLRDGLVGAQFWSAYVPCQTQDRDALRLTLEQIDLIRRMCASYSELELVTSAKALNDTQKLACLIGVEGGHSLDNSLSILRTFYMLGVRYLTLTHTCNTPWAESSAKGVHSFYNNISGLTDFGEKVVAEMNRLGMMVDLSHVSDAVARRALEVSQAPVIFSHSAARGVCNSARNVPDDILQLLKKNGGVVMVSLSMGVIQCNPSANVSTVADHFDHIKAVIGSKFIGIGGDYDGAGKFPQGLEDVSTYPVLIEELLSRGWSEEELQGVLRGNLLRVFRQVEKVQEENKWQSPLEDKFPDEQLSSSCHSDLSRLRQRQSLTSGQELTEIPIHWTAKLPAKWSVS

Binder | Kd (hDPEP3-ECD-His) | binding result (mDPEP3) | binding result (cDPEP3) | binding result [1] | binding result [2]
SC34.39 (antibody, mouse IgG2a, V domains shown) VH: QVQLQQSGAELMKPGASVKISCKATGYTFSNYWIEWVKQRPGHGLEWIGEILPGSDSTYFNEKFKGKATFTADTSSNTAYMQLSSLTSEDSAVYYCTIRSAAYYSNPEWFAYWGQGTLVTVSA VL: QIVLTQSPAIMSASQGERVTMTCTASSSVSSNYLHWYQQKPGSSPKLWIYSTSHLASGVPVRFSGSGSGTSYSLTISSMEAEDAATYYCHQYHRSPYTFGGGTKLEIK | < 5 nM | no binding (tested: 1 ug/mL) | no binding (tested: 1 ug/mL) | no binding (tested: 1 ug/mL) | no binding (tested: 1 ug/mL)
SC34.90 (antibody, mouse IgG2a, V domains shown) VH: QVQLQQSGAELMKPGASVKISCKATGYTFSYYWIEWVKQRPGHGLEWIGEILPGSDTTYYNEKFKGKATFTADTSSNTAYMQLSSLTSEDSAVYYCTIRRAAYYSNPEWFAYWGQGTLVTVSA VL: QIVLTQSPAIMSASQGERVTMTCTASSSVSSSYLHWYQQKPGSSPKLWIYSTSNLASGVPVRFSGSGSGTSYSLTISSMEAEDAATYYCHQYHRSPYTFGGGTKLEIK | ≥ 5 nM and ≤ 10 nM | no binding (tested: 1 ug/mL) | no binding (tested: 1 ug/mL) | no binding (tested: 1 ug/mL) | no binding (tested: 1 ug/mL)
SC34.5 (antibody, mouse IgG1, V domains shown, also called SC34.05) VH: EVQLQQSGPELVKPGASMKISCKASGYSFTGYTMNWVKQSHGKNLEWIGLIYPYNDDTRYKQKFKGKATLTVDKSSSTAYMELLSLTSEDSAVYYCTRGYYGSPYFDVWGAGTTVTVSS VL: DIVMTQFPSSLAMSVGQKVTMNCKSSQSLLNSSNQKNYLAWFQQKPGQSPKLLVYFASTRESGVPDRFLGSGSGTDFTLTISSVQAEDLADYFCQQHYSTPFTFGSGTKLEIK | < 5 nM | no binding (tested: 1 ug/mL) | no binding (tested: 1 ug/mL) | no binding (tested: 1 ug/mL) | no binding (tested: 1 ug/mL)
SC34.6 (antibody, mouse IgG1, V domains shown, also called SC34.06) VH: EVQLQQSGPELVKPGTSMKISCKASGYSFTGYTMNWVKQSHGKNLEWIGLIYPYNDDTRYNRKFKGKATLTVDKSSNTAYMELLSLTSVDSAVCYCARGSYGSPFFDVWGAGTTVTVSS VL: not shown | < 5 nM | no binding (tested: 1 ug/mL) | no binding (tested: 1 ug/mL) | no binding (tested: 1 ug/mL) | no binding (tested: 1 ug/mL)
SC34.78 (antibody, mouse IgG1, V domains shown) VH: DVQLQESGRGLVKPSQSLSLTCTVTGYSLTSDFAWNWIRQFPGNKLEWMGYIRYSGTTSYNPSLKSRISITRDTSKNQFFLQLNSVTTEDTATYYCGYGNYGYAMDYWGQGTSVTVSS VL: DIMMTQSPATLSVTPGDRVSLSCRASQSIGAYLHWYQQKSHESPRLLIKYVSQSISGIPSRFSGSGSGSDFTLSINSVEPEDVGVYYCQNGHSFPLTFGAGTKLELK | > 10 nM | no binding (tested: 1 ug/mL) | no binding (tested: 1 ug/mL) | no binding (tested: 1 ug/mL) | no binding (tested: 1 ug/mL)
SC34.71 (antibody, mouse IgG2a, V domains shown) VH: QVSLKESGPGILQPSQTLSLTCSFFGFSLSTSSMGVGWIRQPSGKGLEWLANIWWDNNKYYNAALKSRLTISKDTSKNQVFLNIASVDTTDTATYYCARIESYYSNRAWFPYWGRGTLVTVSA VL: DIVMTQSQKFMSTSVGDRVSITCKASQNVRTAVAWYQQKPGQSPKTLIYLASNRHTGVPDRFTGSGSGTDFTLTISYVQSEDLADYFCLQHLNYPWTFGGGTKLEIK | < 5 nM | no binding (tested: 1 ug/mL) | no binding (tested: 1 ug/mL) | no binding (tested: 1 ug/mL) | no binding (tested: 1 ug/mL)
SC34.14 (antibody, mouse IgG1, V domains shown) VH: EVQLQQSGPEMVKPGASVKISCKASGYIFTDYYMHWVKQSHGESLDWIGRVNPKKGGTTYNQKFEGKAILTVDKSSSTAYMDLNSLTSEDSAVYYCAMGIYYSYDASFDYWGQGTTLTVSS VL: DIQMTQAPASLSPSVGATVTITCRTSEHIYSYLAWYQQKQGKSPRLLVYNAKTLAEGVSSRFSGSGSGTQFSLQINSLQPEDFGNYYCQHHYDTPYTFGGGTKLEIK | < 5 nM | no binding (tested: 1 ug/mL) | no binding (tested: 1 ug/mL) | – | no binding (tested: 1 ug/mL)
SC34.48 (antibody, mouse IgG1, V domains shown) VH: EVQLQQSGLEMVKPGASVKISCKASGYIFTDYYMHWVKQSHGKSLDWIGRVNPKKGGTTYNQKFEGKATLTVDKSSSTAYMDLNSLTSEDSAVYYCAMGIYFSYDASFDYWGQGTTLTVSS VL: DIQMTQAPASLSASVGETVTITCRTSGHIYSYLAWYQQKQGKSPQLLVYNAKTLAEGVSSRFSGSGSGTQFSLKITSLQPEDFGDYYCQHHYDTPYTFGGGTKLEIK | < 5 nM | no binding (tested: 1 ug/mL) | no binding (tested: 1 ug/mL) | – | no binding (tested: 1 ug/mL)
